Earlier results on three substances are cited in publication PMC7532970.

For data set [1], the target named is CBP KIX (Homo sapiens) (UniProt Q92793).
The target is the same in data set [2]. This is another data set of the same source.
For data set [3] the target is unchanged. The source holds these as a separate data set.

Where two headings read alike, the source gives them in different places.

Chain of CBP KIX (Homo sapiens) (Q92793 584-669): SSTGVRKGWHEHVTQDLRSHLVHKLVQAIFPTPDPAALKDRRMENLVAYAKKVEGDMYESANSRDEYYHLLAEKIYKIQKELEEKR
Chain of c-myb (P10242 whole entry): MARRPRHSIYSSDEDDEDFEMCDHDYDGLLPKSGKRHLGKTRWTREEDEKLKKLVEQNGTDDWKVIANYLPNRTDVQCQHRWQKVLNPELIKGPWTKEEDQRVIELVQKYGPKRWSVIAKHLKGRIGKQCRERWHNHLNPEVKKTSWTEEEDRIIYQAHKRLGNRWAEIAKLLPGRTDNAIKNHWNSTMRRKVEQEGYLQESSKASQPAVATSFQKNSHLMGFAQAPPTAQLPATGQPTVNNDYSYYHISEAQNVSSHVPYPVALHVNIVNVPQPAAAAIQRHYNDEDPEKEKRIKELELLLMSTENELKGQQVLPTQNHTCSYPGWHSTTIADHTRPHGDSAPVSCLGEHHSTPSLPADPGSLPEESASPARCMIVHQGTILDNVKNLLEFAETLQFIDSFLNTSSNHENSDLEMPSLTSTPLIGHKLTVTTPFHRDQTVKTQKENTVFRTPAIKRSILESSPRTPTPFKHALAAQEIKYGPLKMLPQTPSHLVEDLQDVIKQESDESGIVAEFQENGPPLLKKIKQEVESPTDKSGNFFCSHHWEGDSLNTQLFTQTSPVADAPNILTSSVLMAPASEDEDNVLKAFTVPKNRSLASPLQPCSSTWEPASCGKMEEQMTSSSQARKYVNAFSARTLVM
Chain of CREB (P16220 whole entry): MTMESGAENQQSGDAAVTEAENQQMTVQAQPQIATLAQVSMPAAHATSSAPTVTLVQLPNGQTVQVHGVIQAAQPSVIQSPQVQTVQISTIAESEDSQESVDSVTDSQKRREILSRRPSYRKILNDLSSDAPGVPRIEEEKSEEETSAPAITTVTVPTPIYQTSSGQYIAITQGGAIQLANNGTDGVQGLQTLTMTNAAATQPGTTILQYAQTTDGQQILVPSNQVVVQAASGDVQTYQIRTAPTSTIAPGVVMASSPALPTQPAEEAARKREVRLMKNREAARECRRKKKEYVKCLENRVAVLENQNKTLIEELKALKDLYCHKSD

As for CREB (from UniProt P16220), the Kd in the data set with CBP KIX (Homo sapiens) [1] is 700 nM.

Regarding p53 (from UniProt P04637), the Kd with CBP KIX (Homo sapiens) [2] is > 90 µM.

For c-myb (from UniProt P10242), the Kd in the data set with CBP KIX (Homo sapiens) [3] is 15 µM.

Usually Kd stands for the equilibrium constant for the complex coming apart.
